These results are taken from article PMC3458555 (Nucleic Acids Research, 2012).

Like-named read-outs stand apart in the source and are kept apart here.

Data set [1] addresses Zfp206SCANΔH1–Zfp110SCAN fusion protein (not stated | mouse) (UniProt Q3URR7). Nature of the data set: SEC.
The target of data set [2] is Zfp206SCAN–Zfp110SCAN ΔH1 fusion protein (not stated | mouse) (UniProt Q3URR7). Nature of the data set: SEC. A general note: SEC sorts molecules by how far they enter the pores of the column.
Data set [3] deals with the molecule itself. Kind of data set: SEC.
Data set [4] deals with the molecule itself. Nature of the data set: SEC. The source holds these as a separate data set.
Data set [5] deals with the molecule itself.

One may read the stoichiometry N as a count of units in the complex or per binding partner. In turn, “Zfp206SCANΔH1–Zfp110SCAN fusion protein (from UniProt Q3URR7 36-128)” registered a stoichiometry N in data set [1] of 2.
In the case of “Zfp206SCAN–Zfp110SCAN ΔH1 fusion protein (from UniProt Q3URR7 36-128)”, the stoichiometry N in data set [2] is 2.

B1: Zfp110SCAN (SCAN domain of Zfp110) (domain or fragment, mouse, UniProt A0A0R4J249 154-247, looked up)
chain: RLTDTEASRQKFRHFQYEESAGPQKAMSQLRKLCHQWLQPNTRSKKQILELLVLEQFLNALPEKFRVWVESQHPEDCKAVVALLENMTSVSKDD
Take B1: the “stoichiometry N” value in data set [3] was 2.

B2: Zfp206SCAN–ZNF174SCAN fusion protein (other)
chain: RPRPEVAHQLFRCFQYQEDMGPRASLGRLRELCNHWLRPALHTKKQILELLVLEQFLSVLPPHVLSRLHGQPLRDGEEVVQLLEGVPRDISHMRQGFRHFCYQEVSGPQEALSCLQQLCRQWLQPELHTKEQILELLVMEQFLVILPPEIQAQVWHRYPKSSREIVTLVEDLHR
As to B2, the “stoichiometry N” value in data set [4] turned out to be 2.

B3: Zfp206SCAN (SCAN domain of Zfp206, tag-free) (domain or fragment)
chain: GRPRPEVAHQLFRCFQYQEDMGPRASLGRLRELCNHWLRPALHTKKQILELLVLEQFLSVLPPHVLSRLHGAPLRDGEEVAQLEGVPRDISHM
As for B3, the “stoichiometry N” value in data set [3] was 2.

B4: MBP-Zfp206SCAN (domain or fragment)
chain: B3 chain
Turning to B4, in data set [5], the “stoichiometry N” value was determined as 2.
